Results on one substance are retold here after article PMC5084080.

As usually defined, the Kd is the equilibrium constant for the complex coming apart. High values mean weaker binding, low ones tighter binding.

This assay has as its target LarB1-His (Rhodococcus jostii). Description: BLI.

In turn, “LarA-MBP (from UniProt H7C8I3 1-46) (natural protein)” displayed a Kd of 440 nM.
